From US20240270866A1 (Alector, published 2024)
Where a chain is given by its changes, count along the chain named.

B1: SA-5-57 Fab (Fab, V domains shown)
VH: EVQLLESGGGLVQPGGSLRLSCAASGFTFDSYAMSWVRQAPGKGLEWVSATSGGGGSTYHADPVKGRFTISRDNSKNTLYLQMNSLRAEDTAVYYCAKDITDDFWSVTPPYFDLWGRGTLVTVSS
VL: DIQLTQSPSSVSASVGDRVTITCRASQDISSWLAWYQQKPGKAPKLLIYAASSLQSGVPSRFSGSGSGTDFTLTISSLQPEDFATYYCQQGYIFPRTFGGGTKVEIK
notes: papain Fab
B2: SA-56-91 Fab (Fab, V domains shown)
VH: EVQLVESGGGVVQPGRSLRLSCAASGFTFAHYGMAWVRQAPGKGLEWVASIWVDGSNKYYADSVKGRFTISRDNSKNTLYLQMNSLRAEDTAVYYCATAVETYSGPNWFDPWGQGTLVTVSS
VL: B1 VL with L4M, D28G, G91A, Y92I, I93Y, R96I
notes: papain Fab
B3: SA-56-96 Fab (Fab, V domains shown)
VH: B2 VH with V5L, A30S, H31S, G33A, A35G, S50V, N57L, A99G, V100R
VL: B1 VL with L4M, D28G, G91A, Y92I, I93Y, R96I
notes: papain Fab
B4: SA-56-95 Fab (Fab, V domains shown)
VH: B2 VH with V5L, S50V, N57P, T98V, V100R
VL: B1 VL with L4M, D28G, G91A, Y92I, I93Y, R96I
notes: papain Fab
B5: SA-56-92 Fab (Fab, V domains shown)
VH: B2 VH with A30S, H31Y, A35S, N84D, A99G
VL: B1 VL with L4M, D28G, G91A, Y92I, I93Y, R96I
notes: papain Fab
B6: SA-56-85 Fab (Fab, V domains shown)
VH: B2 VH with V5L, R19G, F27S, A30S, H31Y, A35S, N77S, T98R, A99G
VL: B1 VL with L4M, D28G, G91A, Y92I, I93Y, R96I, I106N, K107Q
notes: papain Fab
B7: SA-56-87 Fab (Fab, V domains shown)
VH: B2 VH with A30S, H31Y, A35S, T98F, A99G, V100L
VL: B1 VL with L4M, D28G, G91A, Y92I, I93Y, R96I
notes: papain Fab
B8: SA-56-88 Fab (Fab, V domains shown)
VH: B2 VH with A30S, H31Y, A35S, V64A, T98E, A99G, V100K
VL: B1 VL with L4M, D28G, G91A, Y92I, I93Y, R96I
notes: papain Fab
B9: SA-56-93 Fab (Fab, V domains shown)
VH: B2 VH with V5L, A30S, H31Y, A35S, T78A, T98V, A99S, V100R
VL: B1 VL with L4M, D28G, G91A, Y92I, I93Y, R96I
notes: papain Fab
B10: SA-56-89 Fab (Fab, V domains shown)
VH: B2 VH with R16G, A30S, H31Y, A35S, I70V, N84D, T98R, A99G
VL: B1 VL with L4M, D28G, G91A, Y92I, I93Y, R96I
notes: papain Fab
B11: SA-5-59 Fab (Fab, V domains shown)
VH: EVQLLESGGGLVQPGGSLRLSCAASGFTFDNYAMSWVRQAPGEGLEWVSAVSGSGGSTYYADSVRGRFTISRDNSKNTLYLQMDSLRAEDTAVYYCAKDTGIDFWARTPPYFDLWGRGTLVTVSS
VL: B1 VL
notes: papain Fab
B12: SA-5-58 Fab (Fab, V domains shown)
VH: B1 VH with T51I, G54S, P63S, I100T, T101G, D102I, D103S, F104L
VL: B1 VL
notes: papain Fab

Each binder was assayed against T1, human SIRPA Fc fusion antigen (human, UniProt P78324 31-373) (assay: ForteBio Fab monovalent).
T1 construct: heterologous signal peptide; not shown: human IgG1 Fc

Kd [nM]	Binder
23.3	B1
1.64	B2
5.35	B3
2.98	B4
1.29	B5
0.772	B6
1.1	B7
0.836	B8
2.34	B9
1.03	B10

These binders were tested against T2, human SIRPβ1 Fc fusion antigen (human, UniProt O00241 30-371) (assay: ForteBio Fab monovalent).
T2 construct: not shown: human IgG1 Fc
T2 sequence (O00241 30-371 limits assumed): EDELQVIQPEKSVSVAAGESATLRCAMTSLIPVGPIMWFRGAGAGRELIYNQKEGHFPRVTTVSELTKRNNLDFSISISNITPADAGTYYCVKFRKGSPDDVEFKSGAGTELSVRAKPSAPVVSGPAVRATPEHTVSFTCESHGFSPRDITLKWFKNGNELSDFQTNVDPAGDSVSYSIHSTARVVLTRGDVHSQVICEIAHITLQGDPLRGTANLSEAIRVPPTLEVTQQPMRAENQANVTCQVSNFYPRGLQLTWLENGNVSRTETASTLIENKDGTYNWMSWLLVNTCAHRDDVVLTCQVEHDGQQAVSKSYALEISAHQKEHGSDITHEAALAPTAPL

binding result	Binder
no binding (tested: 100 nM)	B1
no binding (tested: 100 nM)	B2
no binding (tested: 100 nM)	B11
no binding (tested: 100 nM)	B3
no binding (tested: 100 nM)	B4
no binding (tested: 100 nM)	B5
no binding (tested: 100 nM)	B6
no binding (tested: 100 nM)	B7
no binding (tested: 100 nM)	B12
no binding (tested: 100 nM)	B8
no binding (tested: 100 nM)	B9
no binding (tested: 100 nM)	B10

The binders below were run against T3, biotinylated human SIRPA (monomer) (human, UniProt P78324 31-373, limits assumed, biotinylated) (assay: MSD-SET, Fab, equilibrium;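 also: solution equilibrium titration, free antigen captured on antibody-coated MSD plates and detected by electrochemiluminescence with labeled streptavidin, percent free antigen versus titrated antibody fit to quadratic model for KD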).
T3 construct: monomer made by IdeS cleavage of a SIRPA Fc fusion; also called recombinant human SIRPA
Protocol: Antibodies (20 nM in PBS) were coated onto standard bind MSD-ECL plates overnight at 4° C. or at room temperature for 30 min. Plates were then blocked with 1% BSA for 30 min with shaking at 700 rpm, followed by three washes with wash buffer (PBSF+0.05% Tween 20). SET samples were applied and incubated on the plates for 150s with shaking at 700 rpm followed by one wash. Antigen captured on a plate was detected with 250 ng/ml sulfotag-labeled streptavidin in PBSF by incubation on the plate for 3 min. The plates were washed three times with wash buffer and then read on the MSD Sector Imager 2400 instrument using 1× Read Buffer T with surfactant. The percent free antigen was plotted as a function of titrated antibody in Prism and fit to a quadratic equation to extract the KD. To improve throughput, liquid handling robots were used throughout MSD-SET experiments, including SET sample preparation.

Kd [nM]	Binder
0.51	B2
1.6	B3
0.52	B4
0.35	B5
0.12	B6
0.17	B7
0.16	B8
0.36	B9
0.25	B10
